Results as given in US20190085033A1 (published 2019).

Molecular target: BG505-gp120
Experiment: SPR

B1: 4025 (antibody, V domains shown)
VH: EVQLVQSGAEVKKPGESLKISCKASGYSFSSYWIAWVRQMPGKGLEWMGFIYPADSDTRYSPSFQGQGTISADKSISTAYLQWSSLKASDTAMYYCAILGFWGANRGGGGMDVWGQGTTVIVSS
VL: SYELTQPPSVSVSPGQTARITCSGDALPEKYAYWYQQKSGQAPVLIIYEDSKRPSGIPERFSGSRSGTMATLTISGAQVDDEADYYCYSTNSGGTFFVFGTGTKVTVLG
Work on B1 yielded a Kd of 75 nM.
